Assay results reported in the emibetuzumab library of Makowski et al. (2022).

B1: VH:VL chains; a variant is named by its letters at X, in order (parent)
chain 1: QVQLVQSGAEVKKPGASVKVSCKASGYTFTDYXMHWVRQAPGQGLEWMGXVNPNXXXTTYNQKFEGRVTMTTDTSTSTAYMELRSLRSDDTAVYYCARXNXLDXWGQGTTVTVSS
chain 2: DIQMTQSPSSLSASVGDRVTITCSVSSSVSSIYLHWYQQKPGKAPKLLIYSTSNLASGVPSRFSGSGSGTDFTLTISSLQPEDFATYYCQVYSGYPLTFGGGTKVEIK

Variants of: B1
Assay: yeast display scFab, FACS + sequencing
Procedure, shortened: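 For the non-specific binding call, a heavy-chain CDR mutant scFab library on the yeast surface was FACS-sorted and samples from two replicates were deep sequenced. Cells were labelled with anti-Myc and either biotinylated ovalbumin (260 μg/mL in PBSB, 3 h, room temperature) or soluble membrane proteins (130 μg/mL, 20 min on ice), with gates on the top 25% and bottom 10% of binders. With membrane protein and ovalbumin samples pooled, a sequence in ≥3 of 4 positive samples and no negatives was scored positive, and the converse rule scored negatives.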

Row | Variant | non-specific binding call
1 | FRRKDDWA | binds
2 | YRRRGDAA | binds
3 | YRRRGDAD | binds
4 | YRRGGAAD | binds
5 | YRRGGAAS | binds
6 | YRRGGAAA | binds
7 | YRRGGAAF | binds
8 | YRRGGAAV | binds
9 | YRRGGAAY | binds
10 | YRRGGSGS | binds
11 | YRRGGSGA | binds
12 | YRRGGSGD | binds
13 | YRRGGSGY | binds
14 | VRRRGALD | binds
15 | VRRRGALA | binds
16 | YRRRGDLD | binds
17 | FRRGSALA | binds
18 | YRRKDALA | binds
19 | YRRGGSWV | binds
20 | YRRGGSWD | binds
21 | YRRGGALD | binds
22 | YRRGGALA | binds
23 | YRRGGALV | binds
24 | YRRKGALV | binds
25 | YRRGSASV | binds
26 | YRRGSASS | binds

Row | Variant | non-specific binding call
27 | YRRGSASD | binds
28 | VRRGSSGD | binds
29 | YRRGSSLV | binds
30 | YRRGSSLF | binds
31 | YRRGSSLY | binds
32 | YRRGSSLS | binds
33 | SRRRGALD | binds
34 | YRRRGDWD | binds
35 | YRRRGDWY | binds
36 | YRRRGDWA | binds
37 | YRRGSAGS | binds
38 | YRRGSAGF | binds
39 | FRRRGSSD | binds
40 | VRRGSSAF | binds
41 | VRRGSSAD | binds
42 | VRRGSSAS | binds
43 | VRRGSSAV | binds
44 | DRRRGALD | binds
45 | YRRRGDVV | binds
46 | YRRRGDVD | binds
47 | YRRRGDVY | binds
48 | YRRGSSAV | binds
49 | YRRGSSAA | binds
50 | ARRGSAVS | binds
51 | FRRGGSVD | binds
52 | VRRGSFGA | binds

Row | Variant | non-specific binding call
53 | VRRRGSGD | binds
54 | ARRGSSLD | no binding
55 | FRRGSSAA | binds
56 | FRRGSSAV | binds
57 | YRRGGAVS | binds
58 | YRRGGAVA | binds
59 | VRRRGSLF | binds
60 | YRRGSSGF | binds
61 | YRRGSSGA | binds
62 | YRRGSSGS | binds
63 | ARRGSDLA | no binding
64 | FRRGGSLD | binds
65 | YRRGSYVY | binds
66 | FRRGGALD | binds
67 | VRRGSASD | binds
68 | VRRRGAAD | binds
69 | ARRRGAWY | binds
70 | FRRRGSGD | binds
71 | VRRRGSWV | binds
72 | YRRGSVGA | binds
73 | YRRGSVGV | binds
74 | YRRRGAVA | binds
75 | YRRRGAVF | binds
76 | YRRRGAVY | binds
77 | YRRRGAVD | binds
78 | FRRRGSLV | binds

Row | Variant | non-specific binding call
79 | FRRRGSLY | binds
80 | ARRRGSGA | binds
81 | DRRGSDAV | no binding
82 | SRRRGSAA | binds
83 | YRRRGSWD | binds
84 | YRRRGSWA | binds
85 | YRRRGSWS | binds
86 | YRRRGSWV | binds
87 | VRRGSAGS | binds
88 | VRRGSAGD | binds
89 | YRRRGVGD | binds
90 | YRRRGVGA | binds
91 | ARRGGSGS | binds
92 | ARRGGSGF | binds
93 | FRRRGAAA | binds
94 | FRRRGAAD | binds
95 | YRRRGAGV | binds
96 | YRRRGAGA | binds
97 | YRRRGAGY | binds
98 | YRRRGAGF | binds
99 | YRRRGAGD | binds
100 | YRRRGFWY | binds
101 | VRRGSDGV | no binding
102 | YRRRGALF | binds
103 | YRRRGALS | binds
104 | YRRRGALY | binds

Row | Variant | non-specific binding call
105 | YRRRGALA | binds
106 | VRRGGSAA | binds
107 | YRRRGSGA | binds
108 | YRRRGSGF | binds
109 | YRRRGSGY | binds
110 | YRRRGSGV | binds
111 | YRRRGSGS | binds
112 | VRRKSSSV | binds
113 | YRRRGASD | binds
114 | YRRRGASV | binds
115 | YRRRGASS | binds
116 | YRRRGASA | binds
117 | YRRRGASF | binds
118 | YRRGGDGA | binds
119 | YRRRGSSS | binds
120 | YRRRGSSF | binds
121 | YRRRGSSD | binds
122 | YRRRGSSA | binds
123 | YRRGSSSA | binds
124 | YRRGSSSV | binds
125 | FRRGSSGD | binds
126 | FRRGSSGS | binds
127 | FRRGSSGA | binds
128 | FRRRGDWY | binds
129 | ARRRGSAA | binds
130 | SRRGGYVS | binds
